Positions count from the first letter of the chain named. Names may count otherwise.
B1: E35D/D46E/M47V/V68M/L85Q (protein, UniProt P33681 35-288, looked up, variant E35D D46E M47V V68M L85Q)
T-lymphocyte activation …: VIHVTKEVKEVATLSCGHNVSVEELAQTRIYWQKDKKMVLTMMSGEVNIWPEYKNRTIFDITNNLSIMILALRPSDEGTYECVVQKYEKDAFKREHLAEVTLSVKADFPTPSISDFEIPTSNIRRIICSTSGGFPEPHLSWLENGEELNAINTTVSQDPETELYAVSSKLDFNMTTNHSFMCLIKYGHLRVNQTFNWNTTKQEHFPDNLLPSWAITLISVNGIFVICCLTYCFAPRCRERRRNERLRRESVRPV
B2: E35D/M47V/V68M/L85M/Y87D (protein, UniProt P33681 35-288, looked up, variant E35D M47V V68M L85M Y87D)
T-lymphocyte activation …: B1 T-lymphocyte activation … with E46D, Q85M, Y87D
B3: E35D/D46V/M47L (protein)
chain: VIHVTKEVKEVATLSCGHNVSVEELAQTRIYWQKDKKMVLTMMSGVLNIWPEYKNRTIFDITNNLSIVILALRPSDEGTYECVVLKYEKDAFKREHLAEVTLSVKAD
B4: E35D/D46V/V68M (protein)
chain: B3 chain with L47M, V68M
B5: E35D/M47V/V68M/K89N (protein)
chain: B3 chain with V46D, L47V, V68M, K89N
B6: E35D/M47V/N48K (protein)
chain: B3 chain with V46D, L47V, N48K
B7: E35D/M47V/N48K/V68M (protein)
chain: B3 chain with V46D, L47V, N48K, V68M
B8: A26E/V68M/A71G/D90G (protein)
chain: B3 chain with A26E, D35E, V46D, L47M, V68M, A71G, D90G
B9: E35D/M47L/V68M/A71G (protein)
chain: B3 chain with V46D, V68M, A71G
B10: H18R/A26P/E35D/D46N/M47V/V68M/A71G/D90P (protein, UniProt P33681 35-288, looked up, variant H18R A26P E35D D46N M47V V68M A71G D90P)
T-lymphocyte activation …: B1 T-lymphocyte activation … with H18R, A26P, E46N, A71G, Q85L, D90P
modifications: Fc fusion
B11: H18V/A26P/E35D/M47V/V68L/A71G (protein, UniProt P33681 35-288, looked up, variant H18V A26P E35D M47V V68L A71G)
T-lymphocyte activation …: B1 T-lymphocyte activation … with H18V, A26P, E46D, M68L, A71G, Q85L
B12: H18Y/E35D/V68M/A71G/R94Q/E95V (protein, UniProt P33681 35-288, looked up, variant H18Y E35D V68M A71G R94Q E95V)
T-lymphocyte activation …: B1 T-lymphocyte activation … with H18Y, E46D, V47M, A71G, Q85L, R94Q, E95V
modifications: Fc fusion
B13: E35D/V68M/K89N (protein)
chain: B3 chain with V46D, L47M, V68M, K89N
B14: D46V/V68M/L85Q (protein)
chain: B3 chain with D35E, L47M, V68M, L85Q
B15: V68M/K89N (protein)
chain: B3 chain with D35E, V46D, L47M, V68M, K89N
B16: E35D/D46V/M47L/V68M (protein)
chain: B3 chain with V68M
B17: E35D/D46V/V68M/L85Q (protein)
chain: B3 chain with L47M, V68M, L85Q
B18: H18Y/M47L/A71G/D90G (protein)
chain: B3 chain with H18Y, D35E, V46D, A71G, D90G

Target: huPD-L1 (Homo sapiens, UniProt Q9NZQ7)
Sequence (Q9NZQ7 19-290): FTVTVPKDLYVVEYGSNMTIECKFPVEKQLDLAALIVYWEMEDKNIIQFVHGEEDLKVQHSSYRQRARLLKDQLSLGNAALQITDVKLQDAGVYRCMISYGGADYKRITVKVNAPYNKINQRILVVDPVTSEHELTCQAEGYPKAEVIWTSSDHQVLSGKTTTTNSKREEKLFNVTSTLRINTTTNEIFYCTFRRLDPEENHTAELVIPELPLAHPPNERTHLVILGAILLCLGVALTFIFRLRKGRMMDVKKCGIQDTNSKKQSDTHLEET
Assay: Flow binding to CHO cells stably expressing PD-L1
Design: huCTLA4 and huPD-L1, full-length mammalian surface expression constructs were generated; expressed in transfected cells; host or cells: CHO cells, lentiviral transduction, sorted to >98% purity
Settings: Table E11; CHO cells stably expressing PD-L1; 33.3 nM
Experimental: (§1) Binding of selected immunomodulatory fusion proteins to cognate binding partners was assessed. […] Cells were sorted in a Bio-Rad S3 Cell Sorter (Bio-Rad Corp., USA) to >98% purity. Jurkat/IL2 reporter cells, which endogenously express CD28, were used to detect binding to CD28.
(§2) For staining and analysis by flow cytometry, 100,000 cells of appropriate transfected cells were plated in 96-well round bottom plates. Cells were spun down and resuspended in staining buffer (phosphate buffered saline (PBS), 1% bovine serum albumin (BSA), and 0.1% sodium azide) for 20 minutes to block non-specific binding. […] Primary staining was performed on ice for 45 minutes, before washing cells in staining buffer twice. Phycoerythrin (PE)-conjugated anti-human Fc (Jackson ImmunoResearch, USA) was diluted 1:150, added to cells and incubated another 30 minutes on ice. Cells were then washed twice with 150 μL/well stain buffer, fixed in 2% formaldehyde/PBS, and analyzed on Intellicyt flow cytometer (Intellicyt Corp., USA). PE Mean Fluorescence Intensity (MFI) was calculated for each cell type with FlowJo Version 10 software (FlowJo LLC, USA).
(§3) Binding assays were carried out to assess the specificity and affinity of multivalent proteins to cell-expressed CTLA-4, CD28, and PD-L1 counter structures.
(§4) The EC50 for binding also was determined.

Molecule	PD-L1 MFI at 33.3 nM
B1	1723
B2	1721

Same assay, conditions: Table E19; CHO cells stably expressing PD-L1; 33.3 nM

Molecule	PD-L1 MFI at 33.3 nM
B3	7988
B4	26114
B5	21827
B6	4852
B7	23479

Same assay, conditions: Table E20; CHO cells stably expressing PD-L1; 33.3 nM

Molecule	PD-L1 MFI at 33.3 nM
B8	3195
B9	27872

Same assay, conditions: Table E23; CD80 IgV-Fc (inert) at 33.3 nM; CHO cells stably expressing PD-L1

Molecule	PD-L1 MFI at 33.3 nM
B10	29306
B11	55417

Target: huCTLA4 (Homo sapiens, UniProt P16410)
Sequence (P16410 36-223): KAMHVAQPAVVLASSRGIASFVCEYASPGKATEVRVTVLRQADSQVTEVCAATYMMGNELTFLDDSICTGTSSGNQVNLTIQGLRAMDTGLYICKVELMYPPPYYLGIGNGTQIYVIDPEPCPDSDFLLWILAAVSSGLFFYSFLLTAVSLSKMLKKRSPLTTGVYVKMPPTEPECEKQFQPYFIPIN
Assay: Flow binding to CHO cells stably expressing CTLA4
Design: huCTLA4 and huPD-L1, full-length mammalian surface expression constructs were generated; expressed in transfected cells; host or cells: CHO cells, lentiviral transduction, sorted to >98% purity
Settings: Table E11; CHO cells stably expressing CTLA4; 33.3 nM
Experimental: as §1, §2, §3, §4

Molecule	CTLA4 MFI at 33.3 nM
B1	15533
B2	13936
B12	18281

Same assay, conditions: Table E16; consensus variants; CHO cells stably expressing CTLA4; 33.3 nM

Molecule	CTLA4 MFI at 33.3 nM
B12	19396

Same assay, conditions: Table E19; CHO cells stably expressing CTLA4; 33.3 nM

Molecule	CTLA4 MFI at 33.3 nM
B3	44977
B4	31195
B13	24838
B5	29493
B14	7567
B6	47430
B15	2330
B16	34319
B7	32913
B17	32176

Same assay, conditions: Table E20; CHO cells stably expressing CTLA4; 33.3 nM

Molecule	CTLA4 MFI at 33.3 nM
B8	8666
B9	24656
B18	18162

Same assay, conditions: Table E23; CD80 IgV-Fc (inert) at 33.3 nM; CHO cells stably expressing CTLA4

Molecule	CTLA4 MFI at 33.3 nM
B10	17327
B11	13669

Target: CD28 (Homo sapiens, UniProt P10747)
Assay: Jurkat/IL2 + CHO/OKT3 +/- PD-L1 reporter assay: PD-L1-dependent CD28 costimulation
Assay type: cell-based
Design: host or cells: Jurkat cells expressing an IL-2-luciferase reporter
Settings: Table E13; Jurkat/IL2 + CHO/OKT3/PD-L1; 5.0 nM
Experimental: Jurkat cells were then plated at 50 μL/well for a total of 100,000 cells per well.
To each well, 25 μL of test protein was added to the Jurkat cells. […] The Jurkat cells with test or control proteins were incubated for 15 minutes at room temperature. CHO-derived artificial antigen presenting cells (aAPC) displaying transduced cell surface anti-CD3 single chain Fv (OKT3) (i.e., no PD-L1), or OKT3 and PD-L1 (i.e., +PD-L1), were brought to 0.8×10^6 cells/mL, and 25 μL of cells were added to each well, bringing the final volume of each well to 100 μL. […] Jurkat cells and CHO cells were incubated for 5 hours at 37 degrees Celsius in a humidified 5% CO2 incubation chamber. Plates were then removed from the incubator and acclimated to room temperature for 15 minutes. 100 μL of a cell lysis and luciferase substrate solution (BioGlo luciferase reagent, Promega) were added to each well and the plates were incubated on an orbital shaker for 10 minutes. Luminescence was measured with a 1 second per well integration time using a BioTek Cytation luminometer, and a relative luminescence value (RLU) was determined for each test sample.

Molecule	Relative Luciferase Units (RLU), CD80 Cone 5.0 nM
B1	1006 RLU
B2	1181 RLU
B12	183 RLU

Same assay, conditions: Table E17; consensus variants; Jurkat/IL2 + CHO/OKT3/PD-L1; 5.0 nM

Molecule	Relative Luciferase Units (RLU), CD80 Cone 5.0 nM
B12	1968 RLU

Same assay, conditions: Table E21; Jurkat/IL2 + CHO/OKT3/PD-L1; CD80 Conc 5.0 nM

Molecule	Relative Luciferase Units (RLU), CD80 Conc 5.0 nM
B3	746 RLU
B4	799 RLU
B13	537 RLU
B5	779 RLU
B14	267 RLU
B6	561 RLU
B15	100 RLU
B16	681 RLU
B7	747 RLU
B17	864 RLU

Same assay, conditions: Table E22; Jurkat/IL2 + CHO/OKT3/PD-L1; CD80 Conc 5.0 nM

Molecule	Relative Luciferase Units (RLU), CD80 Conc 5.0 nM
B8	590 RLU
B9	745 RLU
B18	675 RLU

Same assay, conditions: Table E24; Jurkat/IL2 + CHO/OKT3/PD-L1; 5.0 nM

Molecule	Relative Luciferase Units (RLU), CD80 Conc 5.0 nM
B10	972 RLU
B11	881 RLU
